Source: patent US20100144822

Test system: Argyrin A

Substance: purified human erythrocyte derived 20S proteasome
- activity of the caspase-, chymotrypsin- and trypsin-like proteasome activities (fluorogenic peptide substrates): incubation of purified human 20S proteasome with Argyrin A led to a dose dependent inhibition of the caspase, trypsin and chymotrypsin like proteasome activities
